Reference: US10087245 (Hoffmann-La Roche, dated 2018)

Molecular target: T1, Pick bodies (cellular inclusions of Pick's disease, only constituted of 3R tau proteins) (human, UniProt P10636-5 2-410, limits assumed)
T1 construct: Target in tissue sections (IHC)
Experiment: IHC on human paraffin sections, Pick's disease
Method: Immunohistochemistry was performed on formalin-fixed tissues (paraffin-embedded or frozen sections or vibratome sections). Standard IHC protocols were applied and adapted for each tissue conditions. As most of immunostaining experiments were performed using paraffin sections, a detailed protocol for paraffin-embedded material is described herein. Immunostaining of brain tissue was performed on 4 µm thick paraffin sections. Both human and mouse tissues were used (Human patients with AD or other tauopathies and Tg4510 mice (Santacruz et al. 2005 Science, 309, 476-481). Sections were de-paraffinized in xylene, rehydrated through ethanol (100%, 90%, and 70%), 5 min for each solution and finally brought to running tap water for 10 min. They were then incubated in 98% formic acid for 5 min, washed again under running tap water, quenched for endogenous peroxidase with 3% hydrogen peroxide and 20% methanol, and finally washed in water. Non-specific binding was blocked by incubating the sections for 30 min in 2% bovine serum albumin in TBS+0.5% Tween. Appropriate dilutions of primary antibodies (1-10 µg/ml of VHH with either His or Strep tag) were then applied and slices incubated overnight in a humidified chamber at 4° C. […]

T1 sequence (P10636 other isoform, or with tags, fused parts or gaps limits assumed): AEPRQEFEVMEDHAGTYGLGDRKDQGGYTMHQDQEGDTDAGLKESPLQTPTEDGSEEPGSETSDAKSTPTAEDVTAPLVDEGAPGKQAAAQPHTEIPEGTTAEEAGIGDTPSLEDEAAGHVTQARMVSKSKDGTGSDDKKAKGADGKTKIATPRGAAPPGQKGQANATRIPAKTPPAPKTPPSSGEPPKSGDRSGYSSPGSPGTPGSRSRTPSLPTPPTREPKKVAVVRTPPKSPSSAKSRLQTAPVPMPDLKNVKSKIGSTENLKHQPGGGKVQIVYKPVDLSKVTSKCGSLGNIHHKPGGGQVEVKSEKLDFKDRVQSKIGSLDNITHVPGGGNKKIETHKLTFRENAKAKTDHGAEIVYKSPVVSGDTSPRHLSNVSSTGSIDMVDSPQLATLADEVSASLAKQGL

binding result: no binding
B1: VHH Tau-A2 (VHH)
VHH: EVQLQASGGGLVQAGGSLRLSCAASGRSFSGSTMEWYRQAPGKERKFVAAIRTISSRTYYVDSVKGRFTISRDSTKNTVYLQLNSLKVEDTAVYYCAARFSGTIGTTSSVDYWGQGTQVTVSS
notes: Alpaca VHH, expressed in E. coli with a His-tag or a Strep-tag; monomeric by DLS; not shown: 6-Histidine tag (pET23d) or C-terminal Strep-tag (pASK IBA2)
